Assay results from US20110038869A1.
Read-outs that look alike come from different tables or passages of the source. Blank lines part the entries; values can stand above or below the substance they belong to.

Experiments:
[1] = target: CD32aECDHis (human) (UniProt P12318); test: TR-FRET competition of unlabeled against labelled HuMab-KLH, Fc-mediated
[2] = target: CD32bECDHis (human) (UniProt P31994); test: as above
[3] = target: biotinylated CD32bECDHis (human) (UniProt P31994); test: competition ELISA, competitor 053
[4] = target: biotinylated CD32bECDHis (human) (UniProt P31994); test: competition ELISA, competitor 038
[5] = target: full length CD32b1 on transfected IIA1.6 cells (human) (UniProt P31994); test: flow cytometry on IIA1.6-CD32b1 cells
[6] = target: biotinylated CD32bECDHis (human) (UniProt P31994); test: competition ELISA, competitor 028
[7] = target: biotinylated CD32bECDHis (human) (UniProt P31994); test: competition ELISA, competitor 2B6
[8] = target: biotinylated CD32bECDHis (human) (UniProt P31994); test: competition ELISA, competitor 016
[9] = target: CD32b on CD32b+ Daudi cells (Daudi-luc) (human) (UniProt P31994); test: flow cytometry on Daudi-luc cells
[10] = target: CD32b on CD32b+ Daudi cells (Daudi-luc) (human) (UniProt P31994); test: cell-based or functional assay
[11] = target: CD32b on CD32b+ Daudi cells (Daudi-luc) (human) (UniProt P31994); test: flow cytometry on JeKo-1 mantle cell lymphoma cells
[12] = target: biotinylated CD32bECDHis (human) (UniProt P31994); test: competition ELISA, competitor 063
[13] = target: full length CD32b1 on transfected IIA1.6 cells (human) (UniProt P31994); test: flow cytometry on IIA1.6-CD32b1 against IIA1.6-CD32b2 cells
[14] = target: biotinylated CD32bECDHis (human) (UniProt P31994); test: competition ELISA, competitor 024
[15] = target: biotinylated CD32bECDHis (human) (UniProt P31994); test: competition ELISA, competitor 022
[16] = target: CD32bECDHis (human) (UniProt P31994); test: SPR BIAcore 3000, antibody immobilized, CD32bECDHis analyte
[17] = target: CD32bECDHis (human) (UniProt P31994); test: TR-FRET competition against HuMab-KLH-AlexaFluor 647
[18] = target: CD32b on CD32b+ Daudi cells (Daudi-luc) (human) (UniProt P31994); test: cell-based or functional assay; remark: listed apart in the source
[19] = target: biotinylated CD32bECDHis (human) (UniProt P31994); test: competition ELISA, competitor 020
[20] = target: full length CD32b2 on transfected IIA1.6 cells (human) (UniProt P31994); test: flow cytometry on IIA1.6-CD32b2 cells
[21] = target: full length CD32b on stably transfected IIA1.6 cells (human) (UniProt P31994); test: flow cytometry on IIA1.6-CD32b cells
[22] = target: biotinylated CD32bECDHis (human) (UniProt P31994); test: competition ELISA, competitor 034
[23] = target: CD32bECDHis (human) (UniProt P31994); test: ELISA on coated CD32bECDHis
[24] = target: biotinylated CD32bECDHis (human) (UniProt P31994); test: competition ELISA, competitor 026

CD32b on CD32b+ Daudi cells (Daudi-luc) (human), sequence (P31994 43-310): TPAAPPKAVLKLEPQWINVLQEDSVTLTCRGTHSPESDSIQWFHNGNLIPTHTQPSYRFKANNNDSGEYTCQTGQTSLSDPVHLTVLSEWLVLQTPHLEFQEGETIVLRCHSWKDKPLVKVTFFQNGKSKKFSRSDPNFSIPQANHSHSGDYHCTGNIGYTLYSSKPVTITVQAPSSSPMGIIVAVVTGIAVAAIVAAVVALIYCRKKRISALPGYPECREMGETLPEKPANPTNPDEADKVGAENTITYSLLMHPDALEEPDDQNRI
CD32bECDHis (human), sequence (P31994 43-223 limits assumed, form in doubt): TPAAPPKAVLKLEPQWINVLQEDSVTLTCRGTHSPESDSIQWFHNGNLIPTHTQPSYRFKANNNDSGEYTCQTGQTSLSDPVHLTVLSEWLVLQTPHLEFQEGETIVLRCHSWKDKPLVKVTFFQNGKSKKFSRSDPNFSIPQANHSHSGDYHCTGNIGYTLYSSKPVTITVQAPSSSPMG
biotinylated CD32bECDHis (human), sequence (P31994 43-223 limits assumed, form in doubt): as above
full length CD32b1 on transfected IIA1.6 cells (human), sequence (P31994 43-310): as the sequence (P31994 43-310) above
full length CD32b on stably transfected IIA1.6 cells (human), sequence (P31994 43-310): as above
CD32aECDHis (human), sequence (P12318 34-215 limits assumed, form in doubt): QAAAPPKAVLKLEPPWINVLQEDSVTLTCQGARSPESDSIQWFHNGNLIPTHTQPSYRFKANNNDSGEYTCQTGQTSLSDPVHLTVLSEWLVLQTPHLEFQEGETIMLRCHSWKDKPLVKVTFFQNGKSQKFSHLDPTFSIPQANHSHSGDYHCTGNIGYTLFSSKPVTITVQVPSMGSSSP
full length CD32b2 on transfected IIA1.6 cells (human), sequence (P31994 other isoform, or with tags, fused parts or gaps): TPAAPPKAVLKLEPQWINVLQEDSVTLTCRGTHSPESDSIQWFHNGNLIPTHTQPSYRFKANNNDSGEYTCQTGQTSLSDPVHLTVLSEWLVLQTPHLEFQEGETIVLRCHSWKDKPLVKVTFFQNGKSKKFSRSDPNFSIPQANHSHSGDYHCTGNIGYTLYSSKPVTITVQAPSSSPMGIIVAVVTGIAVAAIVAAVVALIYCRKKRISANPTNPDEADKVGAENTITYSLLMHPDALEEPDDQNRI

- IC50 [1]: 134 nM
- IC50 [2]: 417 nM
Substance: HuMab-KLH (a human monoclonal antibody against KLH (keyhole limpet haemocyanin))

- % residual binding [3]: 185%
- % residual binding [4]: 113%
- EC50 [5]: 0.24 nM
- % residual binding [6]: 165%
- % residual binding [7]: 20%
- % residual binding [8]: 105%
- EC50 [9]: 0.1 nM
- EC50 (nM) in ADCC, lysis of 51Cr-labelled Daudi cells by PBMC [10]: 0.25 nM
- EC50 [11]: 0.34 nM
- % residual binding [12]: 181%
- Ratio EC50 (CD32b1)/EC50(CD32b2) [13]: 1.27
- % residual binding [14]: 174%
- % residual binding [15]: 179%
- Kd [16]: 0.3 nM
- koff [16]: 0.00087 s⁻¹
- kon [16]: 2.61e+06 M⁻¹ s⁻¹
- IC50 [17]: 0.57 nM
- EC50 (nM) in ADCC, lysis of 51Cr-labelled Daudi cells by PBMC [18]: 0.13 nM
- % residual binding [19]: 163%
- EC50 [20]: 0.19 nM
- EC50 [21]: 1.49 nM
- % residual binding [22]: 185%
- EC50 [23]: 1.24 nM
- % residual binding [24]: 168%
Substance: chimeric anti-CD32b antibody 2B6
